B1: TPR t1 (parent)
chain: GACCAAUCUGCCCUCAGAGCUCGAGAACAUCUUCGGAUGCAGAGGAGGCAGGCUUCGGUGGCGCGAUAGCGCCAACGUCCUCAACCUCCAAUGCAUCCCACCACAUGAUGAUGCCUGAAGAGCCUUGGUUUUUUG

Variants of: B1
Assay: polymerase ribozyme fitness, log enrichment relative to wild type (log ratio); higher = more active; in vitro selection for triplet polymerase activity
Outline: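 A heterodimeric triplet polymerase ribozyme had each of its subunits mutagenized by PCR into a library, which was transcribed. One round of in vitro selection, done in triplicate, annealed each library with a biotinylated primer, its partner subunit and triplets, then incubated it frozen at −7 °C before gel excision of extended constructs, streptavidin-bead capture and RT-PCR. Fitness is the logarithm of genotype enrichment relative to wild-type enrichment, based on Illumina sequencing of inputs and outputs and inverse-variance-weighted replicate averages. A base-2 logarithm is used, and genotypes were kept only with ≥10 input reads and ≥1 read per output.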

Variant | polymerase ribozyme fitness (log ratio)
G69C C123U | -0.24
A50G C64U C88G | -0.539
C11A C49G | -1.67
C70G C94G C123A | -3.58
C3A G69U G71A A75U A103U C124G | -4.96
G47A C49U G65U G69U C86U G127U | -4.94
G39A A41U G69U | -0.975
C4A U7G G35U G63C G65U C98U G117U | -6
C8U U55C C73A C76G A121U | 1.02
C11G G44A C56G C82G C88U | -2.81
C56U G110A | -0.719
C8U G36U G60C | -1.66
A2U C11U | -2.95
C12U C34A G63C | -3.05
C22G A24U U30C A46G G48U G60C G110U | -6.93
G45U A50U G60U C79G | -2.53
G113A U132C | -1.76
C3U U30G C123A C124U | -5.14
C72A C104G | -7.39
A5U C104A | -2
G45U C94U C101G | -3.3

Variant | polymerase ribozyme fitness (log ratio)
C89U A90C | -0.815
G52U C73U A83U G120A C124U | -0.229
A46U C82U G93U G110U | -3.55
G60A C124A | 1.81
U30C | -1.66
C3A C102U | -2.94
C4U A37U G48U C73G C98A U106G U112A | -5.16
C49U G93A G122A | -1.37
A16U G113A C123U | -4.77
G69U G71A A84C | -4.28
A5U C22A G60U | -6.59
A90G U112G U116C | -0.0889
G35U C101A C115U | -6.19
A6C C72U G93U A100U | -2.39
U54G U87C | -0.0304
A41G A103C | -5.33
U92C C102U | -4.04
C76A C79U C82G A100C C101A | -4.79
C53A U130C | 0.592
C11U U96A G110U | -2.95
C80U C82G C101A C124G U126A | -1.21

Variant | polymerase ribozyme fitness (log ratio)
G48A C72G G77A U78A C79A G120A U130A | -2.79
C88A U129A | -2.21
C20U C40U C70U G120C | -1.36
C4U C12U | 0.148
G36U G110C | -4.93
C22G A43U C72G U106A C115A | -1.97
C13U C56U C97G G127A | -4.74
C8G G47C C86G C124A | 1.6
C12U C20A G120A U132C | -1.48
C28A A75G C86G C123U | -5.57
C13U G39U G44U A68G | -5.44
C4G A43U A46G C62U G63A U78C C114U G117U | -5.92
A2G C88A G93A C115A G117U | -6.36
A5G U32C C70U G93A | -2.13
U9A C11U A66C G117U | -5.04
C22G G48C C72U C124U | -2.66
C12A C15A U132A | -3.86
U7C A90C G93A G117U U132A | -4.79
A2G G36A C49G G69U A90G C97U G120C | 0.751
C73U C79U U87A | -0.627
G36U C53G G63C C86U U87A C101A U129G | -5.54

Variant | polymerase ribozyme fitness (log ratio)
C13U A16C A84U U129A | -3.48
U92A C98U | -4.66
G10C C13G G35A G61A C114U | -5.47
C12U G51A G120A G127C G128U | -1.84
U96A U129C | -1.7
U59G G113A | -1.96
C11U G61U U96A | -1.65
C62U A90C G135U | -2.45
C73U G77A G120A | 0.241
U96A G110A | -2.45
G57C G60A G117U | -2.47
G35U C72U G117C | -7.07
C94A A105C C114A A118U | -1.05
C8A G63U A119U | -1.39
C22A C115A | -4.55
A6U C12U | -0.0768
U59A C62U | 0.252
U38G C76U | -1.36
G63A C82U C85U A90U C98U A118U | -5.21
C11U C31U | -4.93
G60U C70U C94U | -2.63
